In test [1] the target is Recombinant human CPP32 protein with a C-terminal 6His tag, (p17p12)2 tetramer (human) (UniProt P42574). The test is described as follows: cell-based or functional assay.
Test [2] addresses CPP32 P12 subunit + Leu + Glu + 6 His (human) (UniProt P42574). In words: analysis of the purified protein (SDS-PAGE, RP-HPLC, MALDI-TOF MS, N-terminal sequence and amino acid analysis).

Here are results for 2 molecules from patent US20030138840A1.

Regarding “Ac-Asp-Val-Ala-Asp-fluoromethylketone (peptide)”, the enzyme inhibited (CPP32 protease activity) in test [1] is 99.9%.

B1: CPP32 P17 subunit (enzyme, human, UniProt P42574 29-175, looked up)
chain: SGISLDNSYKMDYPEMGLCIIINNKNFHKSTGMTSRSGTDVDAANLRETFRNLKYEVRNKNDLTREEIVELMRDVSKEDHSKRSSFVCVLLSHGEEGIIFGTNGPVDLKKITNFFRGDRCRSLTGKPKLFIIQACRGTELDCGIETD
In the case of B1, the molar ratio in test [2] came out at 1 mol/mol.
